In US20170253656A1 (SUTRO BIOPHARMA, published 2017) one finds Kd, koff and kon data, which are given here for 21 molecules.

Numbering of substitutions follows the chain as printed. Read-outs that look alike come from different tables or passages of the source.

In general, Kd refers to the free concentration of one partner at which half of the binding sites on the other are occupied at equilibrium, for simple one-to-one binding. One may read the koff as a measure of how fast the partners let go of each other. A word on the kon: it is the rate constant with which the complex forms. Read a high kon as fast association.

Holding throughout (experiment): SPR (Biacore T200), captured on anti-human Fc, rhCD74 analyte
For experiment [1], the target named is T1, hu-CD74 antigen (R&D SYSTEMS catalog #3590-CD-050) (human, UniProt P04233-2 73-232, limits assumed).
T1 construct: Bought antigen; also called rhCD74; human CD74
T1 sequence (looked up): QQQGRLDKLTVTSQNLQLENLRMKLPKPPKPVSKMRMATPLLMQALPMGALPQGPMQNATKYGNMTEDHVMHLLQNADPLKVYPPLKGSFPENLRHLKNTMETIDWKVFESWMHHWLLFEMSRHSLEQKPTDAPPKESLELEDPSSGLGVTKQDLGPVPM

For experiment [2], the target named is T1, hu-CD74 antigen (R&D SYSTEMS catalog …). This is another data set of the same source.
Experiment [3] has the same target. The source holds these as a separate data set.
For experiment [4] the target is unchanged. Here is the method: Kinetic binding experiments were performed at 25° C. using 1×HBS-EP+buffer. Kinetic data was collected by injecting test and control antibodies at concentrations of 10, 5 and 2.5 μg/mL for 12 s at a flow rate of 10 μl/min on flow cells 2, 3 and 4 respectively, followed by a buffer wash for 30 s at the same flow rate. Kinetic characterization of antibody samples was carried out with 8 concentrations of a 1:2 dilution series of rhCD74 antigen (R&D Systems) and 2 injections of 0 nM antigen (buffer only). […] Between each ligand capture and analyte binding cycle, regeneration was carried out using 2 injections of 3M MgCl₂ for 30 seconds at 30 μL/min, followed by a 30 second buffer wash step.
This is another data set of the same source.

B1: 1198-D03 paired with trastuzumab LC (Fab, V domains shown)
VH: EVQLVESGGGLVQPGGSLRLSCAASGFNINNYDIHWVRQAPGKGLEWVANIDPYNGATYYADSVKGRFTISADTSKNTAYLQMNSLRAEDTAVYYCARVLWGFWAPFDYWGQGTLVTVSS
VL: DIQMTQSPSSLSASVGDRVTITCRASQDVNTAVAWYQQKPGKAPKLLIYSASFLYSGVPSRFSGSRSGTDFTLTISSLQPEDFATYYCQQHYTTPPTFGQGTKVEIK
notes: Called Fab clone
In experiment [1], B1 showed a Kd of 3.25 nM, a koff of 0.00636 s⁻¹ and a kon of 1.95e+06 M⁻¹ s⁻¹.

B2: 1198-D04 paired with trastuzumab LC (Fab, V domains shown)
VH: B1 VH with A57T, L100P
VL: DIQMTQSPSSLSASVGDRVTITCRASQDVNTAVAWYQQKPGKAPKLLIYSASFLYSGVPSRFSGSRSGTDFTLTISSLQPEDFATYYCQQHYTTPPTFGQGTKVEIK
notes: Called Fab clone
In experiment [1], B2 yielded a Kd of 6.58 nM, a koff of 0.00177 s⁻¹ and a kon of 268000 M⁻¹ s⁻¹.

B3: 1193-H04b (scFv)
scFv: EVQLLESGGGLVQPGGSLRLSCAASGFTFTSSWMSWVRQAPGKGLEWVGIINGYNGITYYADSVKGRFTISRDNSKNTLYLQMNSLRAEDTAVYYCAKPSAPGARRFDYWGQGTLVTVSSGGGGSGGGGSGGGGSEIVLTQSPGTLSLSPGEATLSCRASQSVSSSYLAWYQQRPGQAPRLLIYGASSRATGIPDRFSGSGSGTDFTLTISRLEPEDFAVYYCQQHYTTPPTFGQGTKVEIK
notes: Called scFv clone
In the case of B3, in experiment [2], binding was put at a Kd of 63.8 nM, the koff amounted to 0.00824 s⁻¹ and the kon came out at 129000 M⁻¹ s⁻¹.

B4: 1198-A01 paired with trastuzumab LC (Fab, V domains shown)
VH: EVQLVESGGGLVQPGGSLRLSCAASGFTFSDYDMSWVRQAPGKGLEWVGFIAQDGSYKYYVDSVKGRFTISRDNAKNSLYLQMNSLRAEDTAVYYCARSKLFRAGQFDYWGQGTLVTVSS
VL: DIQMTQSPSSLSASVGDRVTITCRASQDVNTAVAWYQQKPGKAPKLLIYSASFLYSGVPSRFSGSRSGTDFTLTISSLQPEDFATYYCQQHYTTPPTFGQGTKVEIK
notes: Called Fab clone
On to B4, for which, in experiment [1], binding was put at a Kd of 6.6 nM, the off-rate (koff) worked out at 0.00119 s⁻¹ and the kon was found to be 179000 M⁻¹ s⁻¹.

B5: 1198-B10 paired with trastuzumab LC (Fab, V domains shown)
VH: EVQLVESGGGLVQPGGSLRLSCAASGFNISGSWIHWVRQAPGKGLEWVGYIYPDDGDTYYADSVKGRFTISADTSKNTAYLQMNSLRAEDTAVYYCAREGSHNLDKMDYWGQGTLVTVSS
VL: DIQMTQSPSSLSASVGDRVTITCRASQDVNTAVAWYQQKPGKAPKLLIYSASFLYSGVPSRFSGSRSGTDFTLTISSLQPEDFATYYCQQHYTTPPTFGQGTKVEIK
notes: Called Fab clone
On to B5, for which, in experiment [1], the equilibrium dissociation constant (Kd) was determined as 11.9 nM, the koff was found to be 0.00286 s⁻¹ and the kon was determined as 241000 M⁻¹ s⁻¹.

B6: 1193-C08 (scFv)
scFv: EVQLLESGGGLVQPGGSLRLSCAASGFTFNNNWMSWVRQAPGKGLEWVGIINGDDGYTYYADRVKGRFTIIRDNSKNTLYLQMNSLRAEDTAVYYCAKVALGRPRRFDYWGQGTLVTVSSGGGGSGGGGSGGGGSEIVLTQSPGTLSLTPGERATLSCRASQSVSSNYLAWYQQKPGQAPRLLIYGASSRATGIPDRFSGSGSGTDFTLTISRLEPEDFAMYYCQQHYTTPPTFGQGTKVEIK
notes: Called scFv clone
As for B6, in experiment [2], the Kd was found to be 78.2 nM, the koff worked out at 0.00908 s⁻¹ and the kon is 116000 M⁻¹ s⁻¹.

B7: 1337-A04 light chain paired with VH 1251-A06 (SEQ ID NO: 236) (Fab, V domains shown)
VH: QVQLVESGGGVVQPGRSLRLSCAASGFDFSSYGMHWVRQAPDKGLEWVAVIWDDGSDRYYADSVKGRFTISRDNSKNTLYLQMNSLRAEDTAVYYCARGGTRVLGAIHGTDVWGQGTTVTVSS
VL: DIQMTQSPSSLSASVGDRVTITCRASQDIGRWVAWYQQKPEKAPKSLIYGASSLQSGVPSRFSGSGSGTDFTLTISSLQPEDFATYYCQQYNTYPLTFGGGTKVEIK
notes: 'in Fab format'
With B7, in experiment [3], the Kd came to 0.158 nM, the off-rate constant (koff) was determined as 0.000123 s⁻¹ and the kon worked out at 775000 M⁻¹ s⁻¹.

B8: 1251-F06 heavy chain paired with VL SEQ ID NO: 272 (antibody, V domains shown)
VH: QVQLVESGGGVVQPGRSLRLSCAASGFTFSSFGMHWVRQAPDKGLEWVAVIWYDGSNEYYADSVKGRFTISRDNSKNTLYLQMNSLRAEDTAVYYCARGGSLVTRGVYGLDVWGQGTTVTVSS
VL: B7 VL with D28G, G30S, R31S, V33L, G50A, T93S
In experiment [4], B8 displayed a Kd of 0.363 nM, a koff of 0.000779 s⁻¹ and a kon of 2.15e+06 M⁻¹ s⁻¹.

B9: 1251-C03 heavy chain paired with VL SEQ ID NO: 272 (antibody, V domains shown)
VH: QVQLVESGGGVVQPGRSLRLSCAASGFNFSSYGMHWVRQAPDKGLEWVAVIWYDGSIKNYADSVKGRFTISRDNSKNTLYLQMNSLRAEDTAVYYCARGGALMRGEFSGHDVWGQGTTVTVSS
VL: B7 VL with D28G, G30S, R31S, V33L, G50A, T93S
On to B9, for which, in experiment [4], the Kd came to 1.63 nM, the koff stood at 0.00118 s⁻¹ and the kon was 722000 M⁻¹ s⁻¹.

B10: 1275-C10 light chain paired with HC 1251-A06 (SEQ ID NO: 310) (antibody)
heavy: not shown
VL: B7 VL with D28G, I29V, G30S, R31S, V33L, G50S, S52R, S53Y, T93L
In experiment [4], B10 had a Kd of 0.26 nM, a koff of 0.000234 s⁻¹ and a kon of 901000 M⁻¹ s⁻¹.

B11: 1251-E06 heavy chain paired with VL SEQ ID NO: 272 (antibody, V domains shown)
VH: QVQLVESGGGVVQPGRSLRLSCAASGFTFDSYGMHWVRQAPDKGLEWVAVIWYDGSNKVYADSVKGRFTISRDNSKNTLYLQMNSLRAEDTAVYYCARGGMVGQGAMFGLDVWGQGTTVTVSS
VL: B7 VL with D28G, G30S, R31S, V33L, G50A, T93S
In experiment [4], B11 had a Kd of 0.376 nM, a koff of 0.000426 s⁻¹ and a kon of 1.13e+06 M⁻¹ s⁻¹.

B12: 1275-D10 light chain paired with HC 1251-A06 (SEQ ID NO: 310) (antibody, human IgG1, V domains shown)
VH: B7 VH
VL: B7 VL with D28G, I29V, G30F, R31S, V33L, G50N, S52T, S53Q, N92Y, T93Y
Regarding B12, in experiment [4], binding was put at a Kd of 0.559 nM, the koff worked out at 0.000235 s⁻¹ and the on-rate (kon) turned out to be 420000 M⁻¹ s⁻¹.

B13: 1275-D01 light chain paired with HC 1251-A06 (SEQ ID NO: 310) (antibody, human IgG1, V domains shown)
VH: B7 VH
VL: B7 VL with D28G, V33L, A51R, T93I
In experiment [4], B13 showed a dissociation constant Kd of 0.721 nM, an off-rate constant (koff) of 0.000475 s⁻¹ and a kon of 659000 M⁻¹ s⁻¹.

B14: 1337-A07 light chain paired with VH 1251-A06 (SEQ ID NO: 236) (Fab, V domains shown)
VH: B7 VH
VL: B7 VL with D28G, G30S, R31S, S53R, N92H
notes: 'in Fab format'
On to B14, for which, in experiment [3], the Kd came to 0.18 nM, the koff was 0.000141 s⁻¹ and the kon was 785000 M⁻¹ s⁻¹.

B15: 1337-A09 light chain paired with VH 1251-A06 (SEQ ID NO: 236) (Fab, V domains shown)
VH: B7 VH
VL: B7 VL with D28G, R31S, V33L, G50A, S52D, S53R, N92H
notes: 'in Fab format'
In experiment [3], B15 had an equilibrium dissociation constant (Kd) of 0.135 nM, a koff of 0.000134 s⁻¹ and an on-rate (kon) of 994000 M⁻¹ s⁻¹.

B16: 1337-A10 light chain paired with VH 1251-A06 (SEQ ID NO: 236) (Fab, V domains shown)
VH: B7 VH
VL: B7 VL with D28G, G30S, R31S, A51S, S53R
notes: 'in Fab format'
With B16, in experiment [3], binding was characterised by a dissociation constant (Kd) of 0.172 nM, the koff was found to be 0.000161 s⁻¹ and the kon worked out at 935000 M⁻¹ s⁻¹.

B17: 1337-A06 light chain paired with VH 1251-A06 (SEQ ID NO: 236) (Fab, V domains shown)
VH: B7 VH
VL: B7 VL with R31S, S52D, S53R, T93S
notes: 'in Fab format'
In experiment [3], B17 had a Kd of 0.184 nM, a koff of 0.000144 s⁻¹ and a kon of 785000 M⁻¹ s⁻¹.

B18: 1337-A05 light chain paired with VH 1251-A06 (SEQ ID NO: 236) (Fab, V domains shown)
VH: B7 VH
VL: B7 VL with D28G, S52D, S53R, T93S
notes: 'in Fab format'
On to B18, for which, in experiment [3], binding was characterised by a dissociation constant (Kd) of 0.179 nM, the koff worked out at 0.000156 s⁻¹ and the kon amounted to 869000 M⁻¹ s⁻¹.

B19: 1337-A08 light chain paired with VH 1251-A06 (SEQ ID NO: 236) (Fab, V domains shown)
VH: B7 VH
VL: B7 VL with R31S, G50A, A51S, S52D, T93S
notes: 'in Fab format'
In experiment [3], B19 gave a Kd of 0.178 nM, a koff of 0.000134 s⁻¹ and a kon of 749000 M⁻¹ s⁻¹.

B20: 1193-B06 (scFv)
scFv: EVQLLESGGGLVQPGGSLRLSCAASGFTFTGNWMSWVRQAPGKGLEWVGIIYGTSGATYYADSVKGRFTISRDNSKNTLYLQMNSLRAEDTAVYYCAKPSMSGSRGFDYWGQGTLVTVSSGGGGSGGGGSGGGGSEIVLTQSPGTLSLSPGERATLSCRAGQSVSSSYLAWYQQKPGQAPRLLIYGASSRATGIPDRFSGSGSGTDFTLTISRLEPEDFAVYYCQQHYTTPPTFGQGTKVEIK
notes: Called scFv clone; VH3-23 / Vk3-A27; Biacore capture was on anti-human Fc, so an Fc may have been attached
In experiment [2], B20 came in with a Kd of 29 nM, a dissociation rate constant (koff) of 0.0274 s⁻¹ and a kon of 946000 M⁻¹ s⁻¹.

B21: 1193-E06b (scFv)
scFv: EVQLLESGGGLVQPGGSLRLSCAASGFTFNNTDMSWVRQAPGKGLEWVGIINGSGGATNYADSVKGRFTISRDNSKNTLYLQMNSLRAEDTAVYYCAKFENEWEVSMDYWGQGTLVTVSSGGGGSGGGGSGGGGSEIVLTQSPGTLSLSPGERATLSCRASQSVSSSYLAWYQQKPGQAPRLLIYGASSRATGIPDRFSGSGSGTDFTLTISRLEPEDFAVYYCQQHYTTPPTFGQGTKVEIK
notes: Called scFv clone
In experiment [2], B21 returned a Kd of 0.668 nM, a koff of 0.000651 s⁻¹ and a kon of 975000 M⁻¹ s⁻¹.
